Test in all cases: EC50 of free RNA motif oligo competing protein binding to immobilised probe
In series [1] the target is DHX15 (UniProt O43143). How it is done: (§1)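 Competition-binding assay: HEK293-FT cell lysate (2.5 mg protein) pre-incubated 1 h at 4°C with free motif-containing RNA oligos (0 to 30 µM, 12 doses), then pulled down with the same 5'-amino-C6 RNA oligos immobilised on NHS-Sepharose beads (30 min, 4°C). Bound proteins were quantified by label-free LC-MS/MS and normalised to the water control. EC50 came from a four-parameter log-logistic fit; Kd = EC50 x depletion factor. Random/reversed control probes are dropped.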

Series [2] deals with DHX9 (UniProt Q08211). How it is done:
as §1

For series [3], the target named is T1, DHX36 (UniProt Q9H2U1).
T1 sequence: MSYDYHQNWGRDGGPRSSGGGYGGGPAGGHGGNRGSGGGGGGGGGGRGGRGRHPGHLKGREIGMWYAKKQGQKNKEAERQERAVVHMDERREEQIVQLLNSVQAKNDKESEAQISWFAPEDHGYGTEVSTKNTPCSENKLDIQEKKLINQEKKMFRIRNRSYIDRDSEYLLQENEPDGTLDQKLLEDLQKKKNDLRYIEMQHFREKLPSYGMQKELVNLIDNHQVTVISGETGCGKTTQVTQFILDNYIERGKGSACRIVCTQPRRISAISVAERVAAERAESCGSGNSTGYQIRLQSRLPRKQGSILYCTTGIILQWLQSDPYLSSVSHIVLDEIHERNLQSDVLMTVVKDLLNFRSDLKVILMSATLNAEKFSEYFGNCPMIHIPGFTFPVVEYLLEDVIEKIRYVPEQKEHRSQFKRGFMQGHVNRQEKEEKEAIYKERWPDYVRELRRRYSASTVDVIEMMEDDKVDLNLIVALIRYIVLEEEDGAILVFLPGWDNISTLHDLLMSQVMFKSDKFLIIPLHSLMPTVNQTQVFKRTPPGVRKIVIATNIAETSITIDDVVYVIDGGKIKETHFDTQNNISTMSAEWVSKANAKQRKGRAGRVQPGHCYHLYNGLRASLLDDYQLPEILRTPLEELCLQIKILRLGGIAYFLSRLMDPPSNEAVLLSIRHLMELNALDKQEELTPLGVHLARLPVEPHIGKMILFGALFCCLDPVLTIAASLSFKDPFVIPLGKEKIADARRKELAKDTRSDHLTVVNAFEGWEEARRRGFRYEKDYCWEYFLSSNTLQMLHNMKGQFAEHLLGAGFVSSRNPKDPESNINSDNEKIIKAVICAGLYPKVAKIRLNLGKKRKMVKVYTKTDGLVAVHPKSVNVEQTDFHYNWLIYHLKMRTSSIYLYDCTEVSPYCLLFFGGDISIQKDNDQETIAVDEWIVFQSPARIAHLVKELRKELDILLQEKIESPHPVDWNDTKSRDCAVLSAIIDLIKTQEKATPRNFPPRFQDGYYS
How it is done: as §1

Series [4] deals with T2, SKIV2L2 (UniProt P42285).
T2 sequence: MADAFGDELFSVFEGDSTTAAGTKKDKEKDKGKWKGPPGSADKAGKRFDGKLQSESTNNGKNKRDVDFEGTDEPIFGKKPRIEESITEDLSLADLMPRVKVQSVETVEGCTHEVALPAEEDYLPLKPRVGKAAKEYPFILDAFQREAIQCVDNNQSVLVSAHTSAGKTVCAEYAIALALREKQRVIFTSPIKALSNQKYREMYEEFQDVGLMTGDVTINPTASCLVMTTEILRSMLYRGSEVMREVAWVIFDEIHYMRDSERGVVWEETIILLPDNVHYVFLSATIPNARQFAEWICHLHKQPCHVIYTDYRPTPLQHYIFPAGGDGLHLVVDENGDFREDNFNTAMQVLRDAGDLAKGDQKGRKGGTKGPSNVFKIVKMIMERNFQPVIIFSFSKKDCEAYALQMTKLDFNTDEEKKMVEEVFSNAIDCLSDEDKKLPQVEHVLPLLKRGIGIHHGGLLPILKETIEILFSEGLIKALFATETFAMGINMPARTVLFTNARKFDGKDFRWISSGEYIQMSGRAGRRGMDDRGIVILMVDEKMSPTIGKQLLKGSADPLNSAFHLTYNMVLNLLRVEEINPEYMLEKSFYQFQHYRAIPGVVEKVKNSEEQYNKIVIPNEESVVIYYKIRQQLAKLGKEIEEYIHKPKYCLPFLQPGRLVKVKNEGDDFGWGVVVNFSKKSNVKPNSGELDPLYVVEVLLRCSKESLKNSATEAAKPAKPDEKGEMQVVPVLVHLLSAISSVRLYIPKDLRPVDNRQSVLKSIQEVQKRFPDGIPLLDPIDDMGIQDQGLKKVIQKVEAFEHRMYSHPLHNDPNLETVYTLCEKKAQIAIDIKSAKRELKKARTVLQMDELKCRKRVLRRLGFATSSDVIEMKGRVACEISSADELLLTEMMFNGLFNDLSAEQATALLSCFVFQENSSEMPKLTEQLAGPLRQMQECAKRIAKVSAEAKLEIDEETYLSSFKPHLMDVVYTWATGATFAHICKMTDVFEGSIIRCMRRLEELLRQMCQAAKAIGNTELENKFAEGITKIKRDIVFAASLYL
How it is done:
as §1

Series [5] deals with T3, RTCA (UniProt O00442).
T3 sequence: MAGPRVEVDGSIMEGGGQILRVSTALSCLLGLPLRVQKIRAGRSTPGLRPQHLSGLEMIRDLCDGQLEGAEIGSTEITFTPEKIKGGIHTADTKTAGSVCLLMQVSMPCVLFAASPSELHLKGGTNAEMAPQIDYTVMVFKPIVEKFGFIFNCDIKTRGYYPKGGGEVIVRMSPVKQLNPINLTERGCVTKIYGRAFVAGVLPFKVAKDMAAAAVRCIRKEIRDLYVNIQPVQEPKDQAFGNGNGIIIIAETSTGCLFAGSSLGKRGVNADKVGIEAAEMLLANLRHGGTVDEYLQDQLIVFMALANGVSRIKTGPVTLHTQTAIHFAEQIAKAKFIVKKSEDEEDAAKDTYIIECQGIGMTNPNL
How it is done: as §1

Sequence of DHX9 (Q08211 whole entry): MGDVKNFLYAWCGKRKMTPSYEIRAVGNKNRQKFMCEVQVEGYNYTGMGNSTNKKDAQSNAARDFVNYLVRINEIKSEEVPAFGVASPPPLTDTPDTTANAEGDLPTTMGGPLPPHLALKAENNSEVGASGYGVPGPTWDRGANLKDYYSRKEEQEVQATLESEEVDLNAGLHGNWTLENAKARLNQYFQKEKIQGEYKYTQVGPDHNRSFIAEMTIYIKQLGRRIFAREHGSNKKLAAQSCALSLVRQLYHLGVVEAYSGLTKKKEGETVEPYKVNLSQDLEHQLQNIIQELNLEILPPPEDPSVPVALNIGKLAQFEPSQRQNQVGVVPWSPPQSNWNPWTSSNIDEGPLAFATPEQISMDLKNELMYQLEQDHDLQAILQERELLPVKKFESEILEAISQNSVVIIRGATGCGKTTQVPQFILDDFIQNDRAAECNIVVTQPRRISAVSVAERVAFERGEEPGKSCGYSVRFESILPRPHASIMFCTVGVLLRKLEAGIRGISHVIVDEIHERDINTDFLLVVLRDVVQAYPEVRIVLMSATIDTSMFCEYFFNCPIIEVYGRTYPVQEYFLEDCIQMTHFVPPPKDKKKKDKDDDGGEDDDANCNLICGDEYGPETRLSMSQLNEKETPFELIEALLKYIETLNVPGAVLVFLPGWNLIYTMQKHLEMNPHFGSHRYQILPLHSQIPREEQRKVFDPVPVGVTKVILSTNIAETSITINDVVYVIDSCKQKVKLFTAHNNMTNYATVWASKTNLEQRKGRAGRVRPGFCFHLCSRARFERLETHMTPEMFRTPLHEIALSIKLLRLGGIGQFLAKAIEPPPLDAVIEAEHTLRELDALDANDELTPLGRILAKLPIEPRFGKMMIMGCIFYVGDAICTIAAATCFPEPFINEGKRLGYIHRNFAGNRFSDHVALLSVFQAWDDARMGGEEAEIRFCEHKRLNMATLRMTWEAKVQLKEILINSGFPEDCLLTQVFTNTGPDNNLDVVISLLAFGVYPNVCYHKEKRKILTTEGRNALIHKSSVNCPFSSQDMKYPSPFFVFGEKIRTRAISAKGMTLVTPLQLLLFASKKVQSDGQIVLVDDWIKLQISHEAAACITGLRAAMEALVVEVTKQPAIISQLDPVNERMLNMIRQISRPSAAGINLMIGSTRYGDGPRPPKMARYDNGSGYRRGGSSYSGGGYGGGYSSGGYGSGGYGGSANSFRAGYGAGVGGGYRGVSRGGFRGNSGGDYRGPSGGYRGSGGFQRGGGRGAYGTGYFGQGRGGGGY
Sequence of DHX15 (O43143 whole entry): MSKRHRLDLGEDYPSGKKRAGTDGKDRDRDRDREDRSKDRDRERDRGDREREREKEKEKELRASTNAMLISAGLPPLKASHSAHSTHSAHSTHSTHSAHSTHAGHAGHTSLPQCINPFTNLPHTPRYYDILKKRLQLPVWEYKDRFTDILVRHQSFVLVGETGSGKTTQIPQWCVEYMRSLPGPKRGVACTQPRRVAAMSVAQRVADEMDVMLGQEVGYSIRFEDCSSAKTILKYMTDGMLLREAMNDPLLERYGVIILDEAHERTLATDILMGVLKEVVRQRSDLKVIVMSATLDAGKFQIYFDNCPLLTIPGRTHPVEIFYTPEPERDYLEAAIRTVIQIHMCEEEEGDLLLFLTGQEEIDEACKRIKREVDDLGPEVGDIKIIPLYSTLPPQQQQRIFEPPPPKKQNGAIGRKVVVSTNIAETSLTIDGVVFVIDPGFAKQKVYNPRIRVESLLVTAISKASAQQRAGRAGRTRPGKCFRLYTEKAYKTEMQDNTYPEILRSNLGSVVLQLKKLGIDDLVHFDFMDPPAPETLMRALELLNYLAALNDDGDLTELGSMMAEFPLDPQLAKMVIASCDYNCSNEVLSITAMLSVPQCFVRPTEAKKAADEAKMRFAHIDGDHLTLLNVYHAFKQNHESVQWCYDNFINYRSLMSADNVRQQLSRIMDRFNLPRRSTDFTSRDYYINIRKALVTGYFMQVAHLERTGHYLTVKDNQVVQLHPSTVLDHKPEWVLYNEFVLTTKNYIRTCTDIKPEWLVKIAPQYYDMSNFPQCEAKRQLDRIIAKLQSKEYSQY

Consider AAUAAA, for which the 50% effective concentration (EC50) in series [1] was 2150 nM; in series [2], 4050 nM; in series [3] it was 3290 nM; in series [4] it was 2880 nM; in series [5], 566 nM.

As to CUGUCCU, the EC50 was found to be 757 nM in series [1]; 546 nM in series [2]; 5030 nM in series [3]; 3470 nM in series [4]; 1940 nM in series [5].

As to UAUUUAU, the EC50 in series [1] stood at 576 nM; in series [2], 1870 nM; in series [3], 1010 nM; in series [4], 619 nM; in series [5] it was 381 nM.

The EC50 is the midpoint of the concentration-response curve. Higher therefore signals lower potency in that assay.

The values above are taken from the supplement of paper PMC6379048.
